According to patent US20090252724A1 (Hoffmann-La Roche, published 2009):

B1: ANTIBODY A COMPOSITION (mixture of mono- and double-glycosylated ANTIBODY A) (antibody, human IgG1, kappa, V domains shown)
VH: QVELVESGGGLVQPGGSLRLSCAASGFTFSSYAMSWVRQAPGKGLEWVSAINASGTRTYYADSVKGRFTISRDNSKNTLYLQMNSLRAEDTAVYYCARGKGNTHKPYGYVRYFDVWGQGTLVTVSS
VL: DIVLTQSPATLSLSPGERATLSCRASQSVSSSYLAWYQQKPGQAPRLLIYGASSRATGVPARFSGSGSGTDFTLTISSLEPEDFATYYCLQIYNMPITFGQGTKVEIKR
modifications: N-linked glycan at Asn52 (VH CDR2) on one or on both heavy chains (mixture of the two isoforms); N-linked glycan at Asn306 (Fc)
notes: also called Mixture of mono- and double-glycosylated ANTIBODY A isoforms (1:1)
B2: non-glycosylated ANTIBODY A (antibody, human IgG1, kappa, V domains shown)
VH: QVELVESGGGLVQPGGSLRLSCAASGFTFSSYAMSWVRQAPGKGLEWVSAINASGTRTYYADSVKGRFTISRDNSKNTLYLQMNSLRAEDTAVYYCARGKGNTHKPYGYVRYFDVWGQGTLVTVSS
VL: DIVLTQSPATLSLSPGERATLSCRASQSVSSSYLAWYQQKPGQAPRLLIYGASSRATGVPARFSGSGSGTDFTLTISSLEPEDFATYYCLQIYNMPITFGQGTKVEIKR
modifications: Asn52 not glycosylated; N-linked glycan at Asn306 (Fc)
notes: Human IgG1 kappa, made in CHO cells; no glycan in the variable region; also called non-glycosylated ANTIBODY A isoform; non-glycosylated isoform
B3: double-glycosylated ANTIBODY A (antibody, human IgG1, kappa, V domains shown)
VH: QVELVESGGGLVQPGGSLRLSCAASGFTFSSYAMSWVRQAPGKGLEWVSAINASGTRTYYADSVKGRFTISRDNSKNTLYLQMNSLRAEDTAVYYCARGKGNTHKPYGYVRYFDVWGQGTLVTVSS
VL: DIVLTQSPATLSLSPGERATLSCRASQSVSSSYLAWYQQKPGQAPRLLIYGASSRATGVPARFSGSGSGTDFTLTISSLEPEDFATYYCLQIYNMPITFGQGTKVEIKR
modifications: N-linked glycan at Asn52 (VH CDR2) on both heavy chains; N-linked glycan at Asn306 (Fc)
notes: Human IgG1 kappa, made in CHO cells, separated by cation exchange chromatography; also called double-glycosylated ANTIBODY A isoform; double-glycosylated isoform

Columns and labels:
Aβ1-40 fibers [1] = biological target: T1, Aβ1-40 fibers (human); test: SPR (Biacore), Aβ1-40 fibers on CM5, Scatchard; high affinity (bivalent) KD; experimental equilibrium responses
T1 construct: Synthetic peptide aggregated to fibers in vitro (200 µg/ml, 10 mM Na-acetate pH 4.0, 3 days, 37 °C) and coupled to a CM5 chip; also called Aβ1-40 fibrils; fibrillar Aβ40
Protocol: (§1) Binding of ANTIBODY A to fibrillar Aβ was measured online by surface plasmon resonance (SPR), and the affinities of the molecular interactions were determined as follows: Biacore2000 and Biacore3000 instruments were used for these measurements. Aβ1-40 and Aβ1-42 fibers were generated in vitro by incubation of synthetic peptides at a concentration of 200 μg/ml in 10 mM Na-acetate buffer (pH 4.0) for three days at 37° C. Electron microscopic analysis confirmed a fibrillar structure for both peptides, Aβ1-40 showing predominantly shorter (<1 micron) and Aβ1-42 predominantly longer (>1 micron) fibers. These fibers were assumed to represent aggregated Aβ peptides in human AD brain more closely than ill-defined mixtures of amorphous aggregates and unstructured precipitates. The fibers were diluted 1:10 and directly coupled to a CM5 as described in the Instruction Manual of the manufacturer (BIAapplication Handbook, version AB, Biacore AB, Uppsala, 1998).
(§2) This coupling procedure included an activation step, during which the carboxylic acid groups on the surface were transferred into chemically reactive succinimide ester groups by contacting the surface with an aqueous mixture of N-hydroxysuccinimide and 1-ethyl-1-(3-[…])-carbodiimide hydrochloride, and an immobilization step, during which the activated surface was contacted with the fibres dissolved in 10 mM acetate buffer (pH 4.5) at 200-350 resonance units (1 resonance unit (RU) corresponds approximately to a surface loading of 1 picogram/mm²). The fiber loaded surface was then contacted with the antibody solutions in the concentration range 200 nM≧C≧0.15 nM. Typical time dependent response curves (=sensograms) monitored during the association phase (during contact with buffer) and the dissociation phase (subsequent contact with buffer) are shown in FIG. 7.
(§3) Briefly, KD values were calculated by Scatchard type analysis using concentration dependent equilibrium binding responses. These equilibrium binding constants could be obtained in two ways.

Aβ1-40 fibers [2] = biological target: T1, Aβ1-40 fibers; test: SPR (Biacore), Aβ1-40 fibers on CM5, Scatchard; low affinity (monovalent) KD; extrapolated equilibrium responses; stdev 8.40
Protocol: (§4) Binding of ANTIBODY A to fibrillar Aβ was measured online by surface plasmon resonance (SPR), and the affinities of the molecular interactions were determined as follows: Biacore2000 and Biacore3000 instruments were used for these measurements. Aβ1-40 and Aβ1-42 fibers were generated in vitro by incubation of synthetic peptides at a concentration of 200 μg/ml in 10 mM Na-acetate buffer (pH 4.0) for three days at 37° C. Electron microscopic analysis confirmed a fibrillar structure for both peptides, Aβ1-40 showing predominantly shorter (<1 micron) and Aβ1-42 predominantly longer (>1 micron) fibers. […]
as §2, with “The fiber loaded surface was then contacted with the antibody solutions in the concentration range 200 nM≧C≧0.15 nM.” left out, “7. […]” for “7.”

Aβ1-40 fibers [3] = biological target: T1, Aβ1-40 fibers; test: SPR (Biacore), Aβ1-40 fibers on CM5, Scatchard; low affinity (monovalent) KD; experimental equilibrium responses
Protocol: as §1, §2, §3

Aβ1-40 fibers [4] = biological target: T1, Aβ1-40 fibers; test: SPR (Biacore), Aβ1-40 fibers on CM5, Scatchard; high affinity (bivalent) KD; extrapolated equilibrium responses; stdev 0.10
Protocol: as §4
as §2, with “The fiber loaded surface was then contacted with the antibody solutions in the concentration range 200 nM≧C≧0.15 nM.” left out, “7. […]” for “7.”

Aβ1-40 fibers [5] = biological target: T1, Aβ1-40 fibers; test: SPR (Biacore), Aβ1-40 fibers on CM5, Scatchard; high affinity (bivalent) KD; extrapolated equilibrium responses; stdev 0.03
Protocol: as §4
as §2, with “The fiber loaded surface was then contacted with the antibody solutions in the concentration range 200 nM≧C≧0.15 nM.” left out, “7. […]” for “7.”

Aβ1-40 fibers [6] = biological target: T1, Aβ1-40 fibers; test: SPR (Biacore), Aβ1-40 fibers on CM5, Scatchard; low affinity (monovalent) KD; extrapolated equilibrium responses; stdev 0.15
Protocol: as §4
as §2, with “The fiber loaded surface was then contacted with the antibody solutions in the concentration range 200 nM≧C≧0.15 nM.” left out, “7. […]” for “7.”

Aβ1-40 fibers [7] = biological target: T1, Aβ1-40 fibers; test: SPR (Biacore), Aβ1-40 fibers on CM5, Scatchard; high affinity (bivalent) KD; extrapolated equilibrium responses; stdev 0.02
Protocol: as §4
as §2, with “The fiber loaded surface was then contacted with the antibody solutions in the concentration range 200 nM≧C≧0.15 nM.” left out, “7. […]” for “7.”

Aβ1-40 fibers [8] = biological target: T1, Aβ1-40 fibers; test: SPR (Biacore), Aβ1-40 fibers on CM5, Scatchard; low affinity (monovalent) KD; extrapolated equilibrium responses; stdev 22.33
Protocol: as §4
as §2, with “The fiber loaded surface was then contacted with the antibody solutions in the concentration range 200 nM≧C≧0.15 nM.” left out, “7. […]” for “7.”

Binder	Kd (Aβ1-40 fibers [1]) [nM]	Kd (Aβ1-40 fibers [2]) [nM]	Kd (Aβ1-40 fibers [3]) [nM]	Kd (Aβ1-40 fibers [4]) [nM]	Kd (Aβ1-40 fibers [5]) [nM]	Kd (Aβ1-40 fibers [6]) [nM]	Kd (Aβ1-40 fibers [7]) [nM]	Kd (Aβ1-40 fibers [8]) [nM]
B1	0.41	27.2	21	0.49				
B2	0.42		2.82		0.19	1.99		
B3	1.54		29				1.43	18.5
